Blank lines part the entries; values can stand above or below the substance they belong to.
Legend:
[1] = test system: starfish p34^cdc2, tyrosine-phosphorylated, from G2-arrested oocytes
[2] = target: Xenopus cdc2 from prophase oocytes, tyrosine phosphorylated (UniProt P24033)
[3] = target: Xenopus cdc2/cyclin B complex (UniProt P24033)
Xenopus cdc2 (34 kD) = Xenopus cdc2 (34 kD) (UniProt P24033)
[4] = target: Xenopus cdc2 (34 kD) (Xenopus laevis) (UniProt P24033); experiment: co-immunoprecipitation, quantified immunoblots, metaphase eggs
Sequence of Xenopus cdc2 (34 kD) (Xenopus laevis) (P24033 whole entry): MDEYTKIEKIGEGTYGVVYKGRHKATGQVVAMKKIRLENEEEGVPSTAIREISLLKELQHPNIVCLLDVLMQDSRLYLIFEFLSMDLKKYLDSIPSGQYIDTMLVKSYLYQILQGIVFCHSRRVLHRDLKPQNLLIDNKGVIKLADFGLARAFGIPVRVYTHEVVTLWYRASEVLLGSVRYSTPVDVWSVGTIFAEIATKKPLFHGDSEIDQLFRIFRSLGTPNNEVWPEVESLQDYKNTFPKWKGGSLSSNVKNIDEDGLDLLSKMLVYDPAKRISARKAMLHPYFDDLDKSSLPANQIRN

[5] = target: Xenopus cdc2 (34 kD) (Xenopus laevis) (UniProt P24033); experiment: co-immunoprecipitation with anti-cdc25 antibody against p13-Sepharose precipitate as total, quantified immunoblot
[6] = target: Xenopus cyclin B2 (Xenopus laevis) (UniProt P13351); experiment: as above
Sequence of Xenopus cyclin B2 (Xenopus laevis) (P13351 whole entry, the tested form may be a part): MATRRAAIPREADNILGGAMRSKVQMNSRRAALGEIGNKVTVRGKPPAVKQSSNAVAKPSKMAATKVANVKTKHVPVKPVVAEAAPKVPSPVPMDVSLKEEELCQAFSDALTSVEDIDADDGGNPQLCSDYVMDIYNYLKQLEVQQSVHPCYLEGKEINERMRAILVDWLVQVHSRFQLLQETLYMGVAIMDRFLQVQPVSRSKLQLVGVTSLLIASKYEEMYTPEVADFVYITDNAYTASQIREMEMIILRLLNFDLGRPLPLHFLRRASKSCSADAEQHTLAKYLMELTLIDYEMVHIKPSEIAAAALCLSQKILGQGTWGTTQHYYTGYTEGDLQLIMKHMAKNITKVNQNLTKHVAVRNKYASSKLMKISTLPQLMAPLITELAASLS

[7] = target: Xenopus cyclin B2 (Xenopus laevis) (UniProt P13351); experiment: co-immunoprecipitation, quantified immunoblots
[8] = target: GST-cdc25 A fusion protein (glutathione-S-transferase / human cdc25 A) (human) [GST: P08515]; experiment: cell-based or functional assay

Sequence of Xenopus cdc2 (34 kD) (P24033 whole entry): as the sequence (P24033 whole entry) above
Sequence of Xenopus cdc25 protein (p72) (Q13972 whole entry): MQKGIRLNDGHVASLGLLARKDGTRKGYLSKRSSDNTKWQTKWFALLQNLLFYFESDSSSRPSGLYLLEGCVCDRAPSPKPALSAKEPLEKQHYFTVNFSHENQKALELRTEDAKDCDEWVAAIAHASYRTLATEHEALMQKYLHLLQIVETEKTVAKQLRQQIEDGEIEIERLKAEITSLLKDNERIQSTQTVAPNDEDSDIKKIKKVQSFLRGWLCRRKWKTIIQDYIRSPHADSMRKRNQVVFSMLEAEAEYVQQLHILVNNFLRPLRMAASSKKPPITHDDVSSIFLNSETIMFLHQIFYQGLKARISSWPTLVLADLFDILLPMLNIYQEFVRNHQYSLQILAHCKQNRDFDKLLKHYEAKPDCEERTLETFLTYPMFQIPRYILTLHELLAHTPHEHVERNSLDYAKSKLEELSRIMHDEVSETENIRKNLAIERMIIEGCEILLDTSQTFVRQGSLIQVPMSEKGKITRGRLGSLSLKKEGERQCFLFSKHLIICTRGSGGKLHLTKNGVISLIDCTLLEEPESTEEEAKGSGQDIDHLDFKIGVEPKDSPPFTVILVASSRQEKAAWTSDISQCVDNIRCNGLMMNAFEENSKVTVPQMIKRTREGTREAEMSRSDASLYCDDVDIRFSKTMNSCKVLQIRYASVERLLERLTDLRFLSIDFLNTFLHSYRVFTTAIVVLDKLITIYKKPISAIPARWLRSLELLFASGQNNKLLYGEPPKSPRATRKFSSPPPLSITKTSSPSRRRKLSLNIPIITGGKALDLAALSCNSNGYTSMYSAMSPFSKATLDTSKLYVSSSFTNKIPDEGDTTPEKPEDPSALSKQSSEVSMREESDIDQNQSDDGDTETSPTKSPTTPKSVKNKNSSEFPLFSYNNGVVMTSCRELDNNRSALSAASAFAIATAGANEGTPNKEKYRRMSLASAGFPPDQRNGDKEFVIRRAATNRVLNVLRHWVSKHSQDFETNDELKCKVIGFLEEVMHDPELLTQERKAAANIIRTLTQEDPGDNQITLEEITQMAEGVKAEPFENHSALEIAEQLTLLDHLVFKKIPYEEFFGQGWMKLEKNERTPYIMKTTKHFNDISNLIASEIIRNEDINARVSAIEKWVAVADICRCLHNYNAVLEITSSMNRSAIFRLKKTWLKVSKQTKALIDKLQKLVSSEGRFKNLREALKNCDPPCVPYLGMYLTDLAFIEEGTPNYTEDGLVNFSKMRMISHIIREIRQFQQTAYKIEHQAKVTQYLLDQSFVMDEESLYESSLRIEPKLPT
Sequence of Xenopus cdc2 from prophase oocytes, tyrosine phosphorylated (P24033 whole entry): as the sequence (P24033 whole entry) above
Sequence of Xenopus cdc2/cyclin B complex (P24033 whole entry, chain 1 of 2): as the sequence (P24033 whole entry) above
Sequence of Xenopus cdc2/cyclin B complex (chain, as listed by the source, chain 2 of 2): as the sequence (P13351 whole entry, the tested form may be a part) above

Substance: GST-cdc25 A fusion protein (glutathione-S-transferase / human cdc25 A)
- tyrosine dephosphorylation of p34^cdc2 [1]: Treatment with purified GST-cdc25A protein induced almost complete tyrosine dephosphorylation of p34^cdc2

Substance: Xenopus cdc25 protein (p72)
- histone H1 kinase activity of inactive prophase p13-bound cdc2 [2]: Both prophase and metaphase cdc25 stimulated histone H1 kinase activity 12-fold
- histone H1 kinase activity of fully activated cdc2/cyclin from metaphase unfertilized eggs [3]: In neither case did p72 have any effect on the histone H1 kinase activity of cdc2
- histone H1 kinase activity in anti-cdc25 immunoprecipitates (Xenopus cdc2 (34 kD)): Histone H1 kinase activity was detected in anti-cdc25 immunoprecipitates from metaphase eggs
- histone H1 kinase activity of cdc2 that is inactive in the absence of cyclin (eggs activated in the presence of cycloheximide) (Xenopus cdc2 (34 kD)): In neither case did p72 have any effect on the histone H1 kinase activity of cdc2
- relative metaphase kinase activity in p13-Sepharose precipitates and anti-cdc25 immunoprecipitates (Xenopus cdc2 (34 kD)): approximately 20-fold different

Substance: Xenopus cdc25 protein (p72) (from UniProt Q13972) (enzyme)
- percent of the cellular content of cdc25 present in anti-cdc2 immunoprecipitates [4]: 20%
- percent of the total cellular cdc2 present in anti-cdc25 immunoprecipitates [4]: 5%
- fold, cdc2 in p13-Sepharose precipitate over cdc2 in anti-cdc25 immunoprecipitate [5]: 20 fold
- fold, cyclin B2 in p13-Sepharose precipitates over cyclin B2 in anti-cdc25 immunoprecipitate [6]: 6 fold
- percent of the full cellular content of cdc25 present in anti-cyclin B2 immunoprecipitates [7]: 20%
- percent of the total population of cyclin B2 associated with cdc25 [7]: 17%

Further lines, results first:

- amount of cyclin B1 at which activation of cdc25 A (10 pmoles) plateaus, RCML phosphatase assay [8]: 10 pmol
- phosphatase activity of cdc25 A in the presence of p13 [8]: 8 fold
- tyrosine phosphatase activity of cdc25 A against 32P-labelled RCML [8]: 4 fold
Substance: human cyclin B1 expressed as fusion protein with GST (from UniProt P14635 1-433)

- tyrosine phosphatase activity of cdc25 A against 32P-labelled RCML [8]: 4 fold
Substance: human cyclin B2 expressed as fusion protein with GST (from UniProt O95067 1-398)

Source: patent publication US7005258
